Experimental data: paper PMC8167854, “Transfer of stabilising mutations between different secondary active transporter families” (FEBS Open Bio, 2021)

B1: Arabidopsis thaliana boron transporter 1 (AtBOR1), wild-type (natural protein)
chain: not shown
notes: BOR1 borate transporter of Arabidopsis thaliana (SLC4 family), full-length wild type; Expressed from pDDGFP-2 with a TEV-cleavable C-terminal yEGFP His-tag; also called WT AtBOR1; AtBOR1 WT; source: S. cerevisiae FGY217, purified in DDM (His-Trap, TEV cleavage, reverse IMAC, Superdex 200); not shown: yEGFP, C-terminal, cleaved; His-tag, C-terminal, cleaved
B2: AtBOR1 M363F (natural protein)
chain: not shown
notes: BOR1 borate transporter of Arabidopsis thaliana with the point mutation M363F, made on the AtBOR1 WT gene; Expressed from pDDGFP-2 with a TEV-cleavable C-terminal yEGFP His-tag; tag removed with TEV protease before SEC; source: S. cerevisiae FGY217, purified in DDM (His-Trap, TEV cleavage, reverse IMAC, Superdex 200); not shown: yEGFP, C-terminal, cleaved; His-tag, C-terminal, cleaved
B3: AtBOR1 M363Y (natural protein)
chain: not shown
notes: BOR1 borate transporter of Arabidopsis thaliana with the point mutation M363Y, made on the AtBOR1 WT gene; Expressed from pDDGFP-2 with a TEV-cleavable C-terminal yEGFP His-tag; tag removed with TEV protease before SEC; source: S. cerevisiae FGY217, purified in DDM (His-Trap, TEV cleavage, reverse IMAC, Superdex 200); not shown: yEGFP, C-terminal, cleaved; His-tag, C-terminal, cleaved

Target: the molecule itself
Assay: SDS/PAGE of SEC fractions, bands identified by mass spectrometry; protein purified in 0.03% DDM, eluted from Superdex 200 10/300 in 20 mM Tris/HCl pH 7.5, 150 mM NaCl; fractions on a 12% Tris-Glycine SDS/PAGE gel; monomer and dimer bands

Binding result, binds:
B1, B2, B3
